{"source": "patent US20110046075A1", "key": {"[1]": {"molecular_target": "Recombinant C3d (human C3 residues 974-1265, C1010A, with N-terminal G-S-R-S-T) (human) (UniProt P01024)", "sequence (P01024 other isoform, or with tags, fused parts or gaps C1010A C1010A limits assumed, form in doubt)": "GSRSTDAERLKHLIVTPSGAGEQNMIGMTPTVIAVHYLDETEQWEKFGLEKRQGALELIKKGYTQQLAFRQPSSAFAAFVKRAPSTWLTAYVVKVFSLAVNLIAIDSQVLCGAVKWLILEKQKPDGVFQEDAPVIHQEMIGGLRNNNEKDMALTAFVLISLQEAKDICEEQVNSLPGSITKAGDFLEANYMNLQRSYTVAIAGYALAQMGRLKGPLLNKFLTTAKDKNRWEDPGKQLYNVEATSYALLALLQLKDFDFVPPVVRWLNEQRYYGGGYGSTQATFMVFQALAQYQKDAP", "experiment": "ITC at 25 C, Efb-C titrated into recombinant C3d"}, "[2]": {"molecular_target": "Recombinant C3d (human C3 residues 974-1265, C1010A, with N-terminal G-S-R-S-T) (human) (UniProt P01024)", "experiment": "isothermal titration calorimetry, Efb-C titrated into recombinant C3d"}, "[3]": {"molecular_target": "Recombinant C3d (human C3 residues 974-1265, C1010A, with N-terminal G-S-R-S-T) (human) (UniProt P01024)", "experiment": "ITC at 25 C, Efb-C titrated into recombinant C3d, single-site model"}, "[4]": {"molecular_target": "Recombinant C3d (human C3 residues 974-1265, C1010A, with N-terminal G-S-R-S-T) (human) (UniProt P01024)", "experiment": "ITC (Example 3, FIG. 17), Efb-C titrated into recombinant C3d"}, "[5]": {"molecular_target": "Recombinant C3d (human C3 residues 974-1265, C1010A, with N-terminal G-S-R-S-T) (human) (UniProt P01024)", "experiment": "ITC at 25 C, Efb titrated into recombinant C3d"}, "[6]": {"molecular_target": "Recombinant C3d (human C3 residues 974-1265, C1010A, with N-terminal G-S-R-S-T) (human) (UniProt P01024)", "experiment": "isothermal titration calorimetry, Efb titrated into recombinant C3d"}, "[7]": {"molecular_target": "Recombinant C3d (human C3 residues 974-1265, C1010A, with N-terminal G-S-R-S-T) (human) (UniProt P01024)", "experiment": "ITC (Example 3, FIG. 17), Efb titrated into recombinant C3d"}, "[8]": {"molecular_target": "Recombinant C3d (human C3 residues 974-1265, C1010A, with N-terminal G-S-R-S-T) (human) (UniProt P01024)", "experiment": "ITC at 25 C, Efb titrated into recombinant C3d, single-site model"}, "[9]": {"molecular_target": "Recombinant C3d (human C3 residues 974-1265, C1010A, with N-terminal G-S-R-S-T) (human) (UniProt P01024)", "experiment": "isothermal titration calorimetry, Ehp titrated into recombinant C3d; first site"}, "[10]": {"molecular_target": "Recombinant C3d (human C3 residues 974-1265, C1010A, with N-terminal G-S-R-S-T) (human) (UniProt P01024)", "experiment": "ITC, Ehp titrated into recombinant C3d, model of two non-equivalent sites, second site"}, "[11]": {"molecular_target": "Recombinant C3d (human C3 residues 974-1265, C1010A, with N-terminal G-S-R-S-T) (human) (UniProt P01024)", "experiment": "isothermal titration calorimetry, Ehp titrated into recombinant C3d; second site"}, "[12]": {"molecular_target": "Recombinant C3d (human C3 residues 974-1265, C1010A, with N-terminal G-S-R-S-T) (human) (UniProt P01024)", "experiment": "isothermal titration calorimetry, Ehp titrated into recombinant C3d; first site of a model with two non-equivalent sites"}, "[13]": {"molecular_target": "Recombinant C3d (human C3 residues 974-1265, C1010A, with N-terminal G-S-R-S-T) (human) (UniProt P01024)", "experiment": "isothermal titration calorimetry, Ehp titrated into recombinant C3d; second site of a model with two non-equivalent sites"}, "[14]": {"molecular_target": "Recombinant C3d (human C3 residues 974-1265, C1010A, with N-terminal G-S-R-S-T) (human) (UniProt P01024)", "experiment": "ITC, model of two non-equivalent sites"}, "[15]": {"molecular_target": "Recombinant C3d (human C3 residues 974-1265, C1010A, with N-terminal G-S-R-S-T) (human) (UniProt P01024)", "experiment": "ITC, Ehp titrated into recombinant C3d, model of two non-equivalent sites, first site"}}, "data": [{"substance": "Efb-C, C-terminal C3-binding domain of Efb from S. aureus strain Mu50 (from UniProt P0C6P2 94-165)", "values": [{"measurement": "enthalpy of binding (ΔH)", "setting": "[1]", "result": -8.5, "unit": "kcal/mol"}, {"measurement": "N", "setting": "[2]", "result": 1}, {"measurement": "Kd", "setting": "[3]", "result": 2, "unit": "nM"}, {"measurement": "Kd", "setting": "[4]", "result": 2, "unit": "nM"}]}, {"substance": "Extracellular fibrinogen-binding protein (Efb), recombinant full-length, S. aureus strain Mu50 (from UniProt P0C6P2 29-165)", "values": [{"measurement": "enthalpy of binding (ΔH)", "setting": "[5]", "result": -9, "unit": "kcal/mol"}, {"measurement": "Kd", "setting": "[6]", "result": 4, "unit": "nM"}, {"measurement": "N", "setting": "[6]", "result": 1}, {"measurement": "ΔH", "setting": "[6]", "result": -9.1, "unit": "kcal/mol"}, {"measurement": "Kd", "setting": "[7]", "result": 2, "unit": "nM"}, {"measurement": "Kd", "setting": "[8]", "result": 2, "unit": "nM"}]}, {"substance": "SAV1155/Ehp (Efb Homologous Protein), recombinant mature form, S. aureus strain Mu50", "values": [{"measurement": "N", "setting": "[9]", "result": 0.5}, {"measurement": "ΔH", "setting": "[9]", "result": -21.1, "unit": "kcal/mol"}, {"measurement": "Kd", "setting": "[10]", "result": 33, "unit": "nM"}, {"measurement": "N", "setting": "[11]", "result": 0.5}, {"measurement": "ΔH", "setting": "[11]", "result": 5.7, "unit": "kcal/mol"}, {"measurement": "Kd", "setting": "[12]", "result": 0.2, "unit": "nM"}, {"measurement": "Kd", "setting": "[13]", "result": 33, "unit": "nM"}, {"measurement": "change in ΔG between the first and second sites", "setting": "[14]", "result": 3, "unit": "kcal/mol"}, {"measurement": "unfavorable change in enthalpy release between the first and second sites", "setting": "[14]", "result": 27, "unit": "kcal/mol"}, {"measurement": "Kd", "setting": "[15]", "result": 0.2, "unit": "nM"}]}]}
